Measurements reported in paper PMC12312565, “Crystal structures of Escherichia coli glucokinase and insights into phosphate binding” (Acta Crystallographica Section F: Structural Biology …, 2025).

Target: the molecule itself
Assay: crystal structure; phosphate-bound ecGLK, space group P4_(3)2_(1)2; crystals grown in 100 mM Tris-HCl pH 8.5, 200 mM lithium sulfate, 20%(w/v) PEG 5000 MME; data collected at room temperature; molecular replacement with PDB 1q18

B1: Escherichia coli glucokinase (enzyme, E. coli)
chain: MTKYALVGDVGGTNARLALCDIASGEISQAKTYSGLDYPSLEAVIRVYLEEHKVEVKDGCIAIACPITGDWVAMTNHTWAFSIAEMKKNLGFSHLEIINDFTAVSMAIPMLKKEHLIQFGGAEPVEGKPIAVYGAGTGLGVAHLVHVDKRWVSLPGEGGHVDFAPNSEEEAIILEILRAEIGHVSAERVLSGPGLVNLYRAIVKADNRLPENLKPKDITERALADSCTDCRRALSLFCVIMGRFGGNLALNLGTFGGVFIAGGIVPRFLEFFKASGFRAAFEDKGRFKEYVHDIPVYLIVHDNPGLLGSGAHLRQTLGHIL
notes: Escherichia coli glucokinase (glk gene cloned into pCDF-1b); Expression and purification follow Fatema et al., 2024; also called GLK; ecGLK; source: E. coli BL21 (DE3), purified (Ni-NTA, PD10 desalting)
stoichiometry N: 2
